{
  "source": "patent US20020098537",
  "proteins": {"B1": {"name": "serum-derived hepatocyte growth factor activator (HGF activator) (protein)", "chain": "VQLSPDLLATLPEPASPGRQACGRRHKKRTFLRPRIIGGSSSLPGSHPWLAAIYIGDSFCAGSLVHTCWVVSAAHCFSHSPPRDSVSVVLGQHFFNRTTDVTQTFGIEKYIPYTLYSVFNPSDHDLVLIRLKKKGDRCATRSQFVQPICLPEPGSTFPAGHKCQIAGWGHLDENVSGYSSSLREALVPLVADHKCSSPEVYGADISPNMLCAGYFDCKSDACQGDSGGPLACEKNGVAYLYGIISWGDGCGRLHKPGVYTRVANYVDWINDRIRPPRRLVAPS"}},
  "key": {"[1]": {"biological_target": "T1, novel protein having inhibitory activity on the protease activity of HGF activator (HAI-I), purified from MKN45 cell culture supernatant", "T1 sequence (O43278 36-529, looked up)": "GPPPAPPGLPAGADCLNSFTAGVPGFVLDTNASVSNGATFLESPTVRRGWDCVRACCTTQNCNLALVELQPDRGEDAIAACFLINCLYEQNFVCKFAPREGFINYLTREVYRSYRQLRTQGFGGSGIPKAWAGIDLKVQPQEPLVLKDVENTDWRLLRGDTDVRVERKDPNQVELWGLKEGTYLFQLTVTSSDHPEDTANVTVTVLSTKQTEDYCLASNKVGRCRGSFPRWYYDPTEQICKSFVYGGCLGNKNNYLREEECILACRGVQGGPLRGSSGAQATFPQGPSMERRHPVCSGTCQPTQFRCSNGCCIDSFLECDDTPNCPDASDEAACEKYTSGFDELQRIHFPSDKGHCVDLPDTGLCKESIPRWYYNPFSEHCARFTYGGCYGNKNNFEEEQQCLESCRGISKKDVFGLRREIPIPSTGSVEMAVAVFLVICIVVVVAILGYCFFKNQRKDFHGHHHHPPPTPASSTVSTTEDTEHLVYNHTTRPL"}, "[2]": {"biological_target": "single chain HGF (hepatocyte growth factor), P14210", "sequence (P14210 32-728)": "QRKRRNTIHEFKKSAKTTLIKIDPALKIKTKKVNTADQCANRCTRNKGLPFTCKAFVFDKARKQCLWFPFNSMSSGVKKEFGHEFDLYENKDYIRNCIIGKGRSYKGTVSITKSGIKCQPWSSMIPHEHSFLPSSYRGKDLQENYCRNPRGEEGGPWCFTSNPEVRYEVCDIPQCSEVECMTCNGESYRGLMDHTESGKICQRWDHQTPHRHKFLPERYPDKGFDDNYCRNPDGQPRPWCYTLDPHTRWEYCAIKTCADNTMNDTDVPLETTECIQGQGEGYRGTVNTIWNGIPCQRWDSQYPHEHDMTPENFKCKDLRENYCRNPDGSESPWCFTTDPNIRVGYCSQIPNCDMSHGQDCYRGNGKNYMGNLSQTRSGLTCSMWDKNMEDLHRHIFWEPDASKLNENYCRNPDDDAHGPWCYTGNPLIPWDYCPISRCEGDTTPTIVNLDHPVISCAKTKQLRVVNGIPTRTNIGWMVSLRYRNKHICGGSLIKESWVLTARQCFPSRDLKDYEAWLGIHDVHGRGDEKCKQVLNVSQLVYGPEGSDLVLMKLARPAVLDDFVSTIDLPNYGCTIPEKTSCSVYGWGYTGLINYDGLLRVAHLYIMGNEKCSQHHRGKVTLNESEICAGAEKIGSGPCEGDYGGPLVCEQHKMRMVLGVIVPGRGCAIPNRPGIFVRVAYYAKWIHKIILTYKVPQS"}},
  "data": [
    {"protein": "B1", "values": [
      {"measurement": "conversion of single chain HGF to double chain HGF by HGF activator (SDS-PAGE under reducing conditions, CBB staining); 10 ng protein, 5 ng HGF activator, 10 ug single chain HGF", "setting": "[1]", "result": "Addition of the protein resulted in suppression of the activity of HGF activator converting single chain HGF to double chain HGF."},
      {"measurement": "conversion of single chain HGF to double chain HGF (SDS-PAGE under reducing conditions, CBB staining)", "setting": "[2]", "result": "the activity of HGF activator converting single chain HGF to double chain HGF"}
    ]}
  ]
}
